Test results reported in article PMC7790537 (PLoS ONE, 2021).

B1: F11 IgA1 polymer (antibody, V domains shown)
VH: QVQLVQSGAEVKRPGSSVRVSCRTSGGSFTSFAISWVRQAPGQGLEWMGRITRILGVPNYAQKFQGRVTITADMPTTTAYLDLTNLRSEDTAVYYCARDSGTSHGDFDYWGQGTLVTVSS
VL: EIVLTQSPVTLSLSPGERATLSCRASQNVINSLVWYQQKPGQAPRLLIYGASNRATGIPARFRGSGSGTDFTLTIDSLEPEDIAVYYCQQRGTWLWSFGQGTKVEIK
B2: F11 IgA2m2 polymer (antibody, V domains shown)
VH: B1 VH
VL: B1 VL
B3: F11 IgA2m2 monomer (antibody, V domains shown)
VH: B1 VH
VL: B1 VL
B4: F11 IgA1 monomer (antibody, V domains shown)
VH: B1 VH
VL: B1 VL

These binders were tested against recombinant trimeric HA of A/Puerto Rico/8/1934 (H1N1) (influenza A virus A/Puerto Rico/8/1934 …, UniProt P03452) (assay: cell-based or functional assay).
Sequence of recombinant trimeric HA of A/Puerto Rico/8/1934 (H1N1) (P03452 18-528): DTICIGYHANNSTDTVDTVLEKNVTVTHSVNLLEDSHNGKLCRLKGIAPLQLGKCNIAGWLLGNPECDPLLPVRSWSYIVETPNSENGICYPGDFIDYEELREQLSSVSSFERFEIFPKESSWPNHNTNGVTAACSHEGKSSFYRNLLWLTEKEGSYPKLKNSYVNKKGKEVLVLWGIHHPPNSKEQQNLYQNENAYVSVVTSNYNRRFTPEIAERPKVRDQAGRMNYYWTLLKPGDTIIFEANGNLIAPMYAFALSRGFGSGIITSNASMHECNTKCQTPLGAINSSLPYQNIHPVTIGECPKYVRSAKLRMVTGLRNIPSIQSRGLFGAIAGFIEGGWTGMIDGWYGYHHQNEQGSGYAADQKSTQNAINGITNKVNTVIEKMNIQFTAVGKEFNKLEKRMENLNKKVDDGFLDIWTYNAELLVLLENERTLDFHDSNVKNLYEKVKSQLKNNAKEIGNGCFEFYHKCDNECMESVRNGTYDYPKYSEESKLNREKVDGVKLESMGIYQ
B1 was tested, and the “HI activity, minimum HI concentration, PR8 virus” value (shortened to “HI activity”) was 500 µg/mL, the “NI activity, EC50 (NI-ELLA), PR8 virus” value was 0.222 µg/mL and the “NT activity, minimum virus-neutralizing concentration, PR8 virus” value (“NT activity” for short) was 25 µg/mL. For B2, the “HI activity” value was 500 µg/mL, the “NI activity, EC50 (NI-ELLA), PR8 virus” value was 0.418 µg/mL and the “NT activity” value was 50 µg/mL. For B3, the “HI activity” value was 500 µg/mL, the “NI activity, EC50 (NI-ELLA), PR8 virus” value was 0.683 µg/mL and the “NT activity” value was 89.1 µg/mL. With B4 the “HI activity” value was 354 µg/mL, the “NI activity, EC50 (NI-ELLA), PR8 virus” value was 0.301 µg/mL and the “NT activity” value was 50 µg/mL.
